Changes are numbered by the printed parent chain.
B1: ADI-24817 (antibody, V domains shown)
VH: EVQLVESGGGLVKPGGSLRLSCAASGFTFSSYSMNWVRQAPGKGLEWVSSISSSSSYIYYADSVKGRFTISRDNAKNSLYLQMNSLRAEDTAVYYCARDSMALLYSNYWFDPWGQGTLVTVSS
VL: QSVVTQPPSVSGAPGQRVTISCTGSSSNIGAGYDVHWYQQLPGTAPKLLIYGNSNRPSGVPDRFSGSKSGTSASLAITGLQAEDEADYYCQSYDSSLSGSVFGGGTKLTVL
notes: full-length IgG
B2: ADI-24860 (antibody, V domains shown)
VH: EVQLLESGGGLVKPGGSLRLSCAASGLTFSDYYMSWIRQAPGKGLEWVSYISGGSSYSNYADSVKGRFTISRDNAKNSLYLQMNSLRAEDTAVYYCARGYCSGSSCYEAFDIWGQGTTVTVSS
VL: B1 VL with Q1S, S2Y, V4L, Y33F, N55D, S100Y, G104T, L108V
notes: full-length IgG; also called Ab 420
B3: ADI-24835 (antibody, V domains shown)
VH: EVQLVESGGGLVKPGGSLRLSCAASGFPFSTSSMNWVRQAPGKGLEWVSSISSSSSYIDYADSVKGRFTISRDNAKNSLYLQMNSLRAGDTAVYYCARVPRSDWYYFDYWGQGTLVTVSS
VL: B1 VL with L48F, G52D, S54K, N55Y, S100Y, G104T
notes: full-length IgG
B4: ADI-24832 (antibody, V domains shown)
VH: EVQLVESGGGLVKPGGSLRLSCAASGFTFSSYSMNWVRQAPGKGLEWVSSISASSSYIFYSDLVKGRFTISRDNAKNSLYLQMNSLRAEDTAVYYCARAGYYYGSGSYYVDYWGQGTLVTVSS
VL: B1 VL with V4L, T19A, D94G, S100W
notes: full-length IgG
B5: ADI-24850 (antibody, V domains shown)
VH: QVQLVQSGGGLVKPGGSLRLSCAASGFTFSSYSMNWVRQAPGKGLEWVSSISSSSSYIYYADSVKGRFTISRDNAKNSLYLQMNSLRAEDTAVYYCAREDYGDYYYYYMDVWGKGTTVTVSS
VL: B1 VL with S2P, V4L, S100Y, G104T, L108V
notes: full-length IgG
B6: ADI-24849 (antibody, V domains shown)
VH: QVQLVQSGGVVVQPGGSLRLSCAASGFTFDDYTMHWVRQAPGKGLEWVSLIGWDGGSTYYADSVKGRFTISRDNSKYSLYLQMNSLRTEDTALYYCAKDLGSSSGYFLGRDYYGMDVWGQGTTVTVSS
VL: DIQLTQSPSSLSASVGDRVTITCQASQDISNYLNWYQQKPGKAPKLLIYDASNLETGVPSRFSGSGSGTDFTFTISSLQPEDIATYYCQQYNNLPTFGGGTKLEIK
notes: full-length IgG; also called Ab 410
B7: ADI-25495 (antibody, V domains shown)
VH: QVQLVQSGGGLVKPGGSLRLSCAASGFTFSSYSMNWVRQAPGKGLEWVSSISSSSSYIYYADSVKGRFTISRDNAKNSLYLQMNSLRAEDTAVYYCARGYCTNGVCYLDAFDIWGQGTTVTVSS
VL: QSVLIQPASVSGSPGQSITISCTGTSSDVGGYNYVSWYQQHPGKAPKLMIYDVSNRPSGVSNRFSGSKSGNTASLTISGLQAEDEADYYCSSYTSSSTPVVFGGGTKVTVL
notes: full-length IgG
B8: ADI-24831 (antibody, V domains shown)
VH: QVQLVESGGGLVKPGGSLRLSCAASGFTFSSYSMNWVRQAPGKGLEWVSSISSSSSYIYYADSVKGRFTISRDNAKNSLYLQMNSLRAEDTAVYYCARVPSDFWSGYYNDYWGQGTLVTVSS
VL: QSVLTQPPSVSGAPGQRVTISCTGSSSNIGAGYDVHWYQQLPGTAPKLLIYGNSNRPSGVPDRFSGSKSGTSASLAITGLQAEDEADYYCQSYDSSLSGSWVFGGGTKLTVL
notes: full-length IgG; also called Ab 393
B9: ADI-22774 (antibody, V domains shown)
VH: EVQLLESGGGLVKPGGSLRLSCAASGFTFSSYSMNWVRQAPGKGLEWVSSISSSSSYIYYADSVKGRFTISRDNAKNSLYLQMNSLRAEDTAVYYCAREGASGYNYRYYFDYWGQGTLVTVSS
VL: B8 VL with L41F, T44A, S54N, E83D, S100Y, W101V
notes: full-length IgG
B10: ADI-19475 (antibody, V domains shown)
VH: EVQLLESGAEVKKPGASVKVTCKASGYTFTHFGINWVRQAPGQGLEWLGWISAYNGNTNYVQKIQGRVTMTTDTSTNTAYMELRSLRSDDTAVYYCARGPPVEAAGTFDYWGQGTLVTVSS
VL: DIVLTQSPLSLPVTLGQPASISCRSSQSLVYSDGNTYLTWFQQRPGQSPRRLIYKVSNRDSGVPDRFSGSGSGTDFTLQISRVEAEDVGVYYCMQGTHWPFTFGPGTKVEIK
notes: full-length IgG
B11: ADI-22757 (antibody, V domains shown)
VH: EVQLLESGAEVKKPGASVKVSCKASGYTFSNYGISWVRQAPGQGLEWMGWISVYNGNTEYAQKFQGRLTMTTDTSTSTAYMELRSLRSDDTAVYYCARDPPAVAASFMDVWGQGTTVTVSS
VL: B10 VL with D1E, Y31H, D33E, T39S, Q79K, V90L, Y92F, F101P, P105G
notes: full-length IgG
B12: ADI-19501 (antibody, V domains shown)
VH: QVQLVQSGAEVKKPGASVKVSCKASGYAFTNYGVSWVRQAPGQGLEWMGWISVYNGNTNYAQKLQGRVTMTTDTSTSTAYMELRSLRSDDTALYYCARDPPSEGAAGLFDYWGQGTLVTISS
VL: B10 VL with L4M, I21F, T39S, Q79K, F101C, P105Q
notes: full-length IgG
B13: ADI-25532 (antibody, V domains shown)
VH: QVQLVQSGGGLVKPGGSLRLSCAASGFTFSSYSMNWVRQAPGKGLEWVSSISSSSSYIYYADSVKGRFTISRDNAKNSLYLQMNSLRAEDTAVYYCARGSSSSWYYFDYWGQGTLVTVSS
VL: QSVVTQPPSVSGAPGQRVTISCTGSSSNIGAGYDVHWYQQLPGTAPKLLIYGNSNRPSGVPDRFSGSKSGTSASLAITGLQAEDEADYYCQSYDSSLSYVFGTGTKVTVL
notes: full-length IgG
B14: ADI-24842 (antibody, V domains shown)
VH: B8 VH with E6Q, S101P, D102H, F103D, W104Y, S105G, N109F
VL: B13 VL with G52R, T78I, Y99V, T103G, V107L
notes: full-length IgG
B15: ADI-24828 (antibody, V domains shown)
VH: EVQLVESGGGLVKPGGSLRLACAASGFSFRSYRMNWVRQAPGKGLEWVSSISSSSSYIDYADSVKGRFTISRDNAKNTVYLQVNSLRAEDTAVYYCARDGRTIFGVVIDYWGQGTLVTVSS
VL: B13 VL with V4L, S54N, A76V, Y99V, T103G, V107L
notes: full-length IgG; also called Ab 390
B16: ADI-24839 (antibody, V domains shown)
VH: EVQLVESGGGLVKPGGSLRLSCAASGFTFSSYSMNWVRQAPGKGLEWVSSISSSSSYIYYADSVKGRFTISRDNAKNSLYLQMNSLRAEDTAVYYCARVLVATAYGNAFDIWGQGTMVTVSS
VL: B13 VL with V4L, S98T, Y99V, T103G, V107L
notes: full-length IgG
B17: ADI-25462 (antibody, V domains shown)
VH: B13 VH with Q1E, Q6E, D73H, Y105F, Y106C
VL: B13 VL with Q1S, S2Y, V4L, V107L
notes: full-length IgG
B18: ADI-24819 (antibody, V domains shown)
VH: B13 VH with Q1E, V5L, Q6E, G99E, S101G, S103G
VL: B13 VL with V4L, S95G, Y99G, T103G
notes: full-length IgG
B19: ADI-24857 (antibody, V domains shown)
VH: B8 VH with Q1E, V5L, V99E, P100G, S101Y, D102Y, F103Y, W104G, Y107S, N109L
VL: B13 VL with Y99V, T103G, V107L
notes: full-length IgG

biological target: T1, RSV prefusion F (preF), subtype B (respiratory syncytial virus subtype B); experiment: BLI, IgG
T1 construct: also called Prefusion subtype B

With B1 as the binder, how does the Kd read?
Its Kd is 9.23 nM.

How did the Kd turn out when B2 was run?
Its Kd is 1.56 nM.

With B3 as the binder, how does the Kd read?
The Kd was 5.55 nM.

How did the Kd turn out when B4 was run?
The Kd was 1.95 nM.

B5 was tested. Which Kd did it give?
Its Kd is 5.56 nM.

How did the Kd turn out when B6 was run?
Its Kd is 1.17 nM.

With B7 as the binder, how does the Kd read?
Its Kd is 6.41 nM.

B8 was tested. Which Kd did it give?
Its Kd is 6.23 nM.

How did the Kd turn out when B9 was run?
The Kd was 4.28 nM.

B10 was tested. Which Kd did it give?
Its Kd is 4.25 nM.

B11 was tested. Which Kd did it give?
Its Kd is 0.538 nM.

B12 was tested. Which Kd did it give?
Its Kd is 1.59 nM.

B13 was tested. Which Kd did it give?
Its Kd is 1.56 nM.

For B14, which Kd is on record?
The Kd was 2.76 nM.

For B15, which Kd is on record?
The Kd was 0.391 nM.

Which Kd does the source give for B16 here?
The Kd was 9.63 nM.

With B17 as the binder, how does the Kd read?
The Kd was 1.71 nM.

With B18 as the binder, how does the Kd read?
Its Kd is 9.44 nM.

With B19 as the binder, how does the Kd read?
The Kd was 3.71 nM.

biological target: RSV F on RSV subtype A virus (mKate-RSV A2) (respiratory syncytial virus A2, UniProt P03420 26-574); experiment: cell-based or functional assay

How did the “Neut IC50 subtype A” value turn out when B1 was run?
The value was 2.2 µg/mL.

B2 was tested. Which “Neut IC50 subtype A” value did it give?
Its value is 0.06 µg/mL.

Which “Neut IC50 subtype A” value does the source give for B3 here?
Its value is 0.63 µg/mL.

Which “Neut IC50 subtype A” value does the source give for B4 here?
The value was 0.49 µg/mL.

How did the “Neut IC50 subtype A” value turn out when B5 was run?
Its value is 0.94 µg/mL.

For B6, which “Neut IC50 subtype A” value is on record?
The value was 0.01 µg/mL.

How did the “Neut IC50 subtype A” value turn out when B7 was run?
The value was 0.24 µg/mL.

With B8 as the binder, how does the “Neut IC50 subtype A” value read?
Its value is 0.21 µg/mL.

For B9, which “Neut IC50 subtype A” value is on record?
The value was 0.29 µg/mL.

With B10 as the binder, how does the “Neut IC50 subtype A” value read?
Its value is 0.05 µg/mL.

How did the “Neut IC50 subtype A” value turn out when B11 was run?
The value was 0.06 µg/mL.

For B12, which “Neut IC50 subtype A” value is on record?
Its value is 0.02 µg/mL.

Which “Neut IC50 subtype A” value does the source give for B13 here?
The value was 0.04 µg/mL.

B14 was tested. Which “Neut IC50 subtype A” value did it give?
The value was 0.03 µg/mL.

Which “Neut IC50 subtype A” value does the source give for B15 here?
Its value is 0.02 µg/mL.

Which “Neut IC50 subtype A” value does the source give for B16 here?
Its value is 0.44 µg/mL.

Which “Neut IC50 subtype A” value does the source give for B17 here?
Its value is 0.15 µg/mL.

How did the “Neut IC50 subtype A” value turn out when B18 was run?
Its value is 4.33 µg/mL.

Which “Neut IC50 subtype A” value does the source give for B19 here?
The value was 0.18 µg/mL.

biological target: RSV F on RSV subtype B virus (mKate-RSV B 18537) (respiratory syncytial virus B 18537, UniProt P13843 26-574); experiment: cell-based or functional assay

How did the “Neut IC50 subtype B” value turn out when B1 was run?
The value was 4.4 µg/mL.

With B2 as the binder, how does the “Neut IC50 subtype B” value read?
Its value is 0.09 µg/mL.

B3 was tested. Which “Neut IC50 subtype B” value did it give?
Its value is 1.06 µg/mL.

For B4, which “Neut IC50 subtype B” value is on record?
The value was 0.24 µg/mL.

How did the “Neut IC50 subtype B” value turn out when B5 was run?
The value was 4.17 µg/mL.

How did the “Neut IC50 subtype B” value turn out when B6 was run?
The value was 0.03 µg/mL.

For B7, which “Neut IC50 subtype B” value is on record?
Its value is 5.6 µg/mL.

B8 was tested. Which “Neut IC50 subtype B” value did it give?
The value was 3.29 µg/mL.

With B9 as the binder, how does the “Neut IC50 subtype B” value read?
Its value is 7.53 µg/mL.

B10 was tested. Which “Neut IC50 subtype B” value did it give?
Its value is 0.04 µg/mL.

B11 was tested. Which “Neut IC50 subtype B” value did it give?
The value was 0.07 µg/mL.

With B12 as the binder, how does the “Neut IC50 subtype B” value read?
Its value is 0.02 µg/mL.

How did the “Neut IC50 subtype B” value turn out when B13 was run?
Its value is 0.05 µg/mL.

B14 was tested. Which “Neut IC50 subtype B” value did it give?
Its value is 0.03 µg/mL.

With B15 as the binder, how does the “Neut IC50 subtype B” value read?
Its value is 0.04 µg/mL.

Which “Neut IC50 subtype B” value does the source give for B16 here?
The value was 4.1 µg/mL.

How did the “Neut IC50 subtype B” value turn out when B17 was run?
Its value is 0.11 µg/mL.

How did the “Neut IC50 subtype B” value turn out when B18 was run?
The value was 6.28 µg/mL.

Which “Neut IC50 subtype B” value does the source give for B19 here?
The value was 1.4 µg/mL.

biological target: T2, RSV postfusion F (postF), subtype A (respiratory syncytial virus subtype A, UniProt P03420 26-513); experiment: BLI
T2 construct: also called Postfusion subtype A; F deltaFP

Does B1 bind?
Result: no binding

Does B2 bind?
Result: no binding

Does B3 bind?
Result: no binding

Does B4 bind?
Result: no binding

Does B5 bind?
Result: no binding

Does B6 bind?
Result: no binding

Does B7 bind?
Result: no binding

Does B8 bind?
Result: no binding

Does B9 bind?
Result: no binding

Does B10 bind?
Result: no binding

Does B11 bind?
Result: no binding

Does B12 bind?
Result: no binding

Does B13 bind?
Result: no binding

Does B14 bind?
Result: no binding

Does B15 bind?
Result: no binding

Does B16 bind?
Result: no binding

Does B17 bind?
Result: no binding

Does B18 bind?
Result: no binding

Does B19 bind?
Result: no binding
